Measured values reported in article PMC9817130 (2023).

B1: P2D9 monoclonal antibody (IgG) (antibody, V domains shown)
VH: EVQLVESGAEVKKPGSSVKVSCKASGDTFYTFDISWVRQAPGQGLEWMGGISPVFDAPNYAQKFQDRVTITADKSTSTAYMELSSLRSEDTAIYYCVKPTYSNYVWGIGAFDVWGQGTTVTVSS
VL: EIVLTQSPGTLSLSPGERATLSCRASQSVGNIYLAWYQQKPGQAPRLLIYGASTRATGIPDRFSGSGSGTDFTLTISRLEPEDFAVYYCQQYGDSLWTFGQGTKVEIK
B2: P3E6 monoclonal antibody (IgG) (antibody, V domains shown)
VH: EVQLLDSGGGLVQPGGSLRLSCAVSGFTFSNYAMNWVRQTPGKELEWVSAISGTGDDTHYADSVRGRFTISSDNSKNTVYLQMNSLRVEDTAIYYCAKAISRYPWGCLDYWGQGTLVTVSS
VL: not shown
B3: P2B4 monoclonal antibody (IgG) (antibody, V domains shown)
VH: EVQLVESGGGLVQPGRSLRLSCAASGFNFDDYAMHWARQVPGKGLEWVSGISGNSGSVEYADSVKGRFAMSRDNAKNSLYLEMNSLRTEDTALYYCAKETTPWGIYRSGGLDVWGQGTTVTVSS
VL: DIQMTQSPSSLSASVGDRVTITCRASQSIHSFLSWYQQKPGKAPKLLINSASTLQSGVPPWFSGSGSGTDFTLTISSLQPEDFATYYCQQSYIAPWTFGQGTKVEIK
B4: P1D9 monoclonal antibody (IgG) (antibody, V domains shown)
VH: EVQLVQSGAEVKKPGSSVRVSCKASGGTFGDDSITWVRQAPGQGLEWMGGIFPLIGKTHYAQRFQGRLTVTADKSTSTAYMELSGLRSEDTAIYYCARDWGTTLTAFDIWGQGTMVTVSS
VL: DIQMTQSPSSLSASVGDTVTITCRAGQTINTFLNWYQQKPGKAPKLLIYAASTLQSGVPSRFSGSGSGTDFTLTINSLQPEDFATYYCQQSYSNLYTFSQGTKVEIK

These binders were tested against T1, SARS-CoV-2 WT RBD protein (Sino Biological) (SARS-CoV-2, UniProt P0DTC2 319-541) (assay: SPR).
With B1 the Kd was 0.202 nM.
Binder B2 has a Kd of 0.558 nM.
B3 was tested, and the Kd was 0.143 nM.
Binder B4 has a Kd of 0.188 nM.

Biological target: T1, SARS-CoV-2 WT RBD protein (Sino …)
Test: SPR
Remark: another data set of the same source
Work on B1 yielded a koff of 4.34e-05 s⁻¹.
B2 gave a koff of 0.00014 s⁻¹.
B3 showed a koff of 1.37e-05 s⁻¹.
Work on B4 yielded a koff of 7.68e-05 s⁻¹.
